Laboratory results from US11046988B2, “Process for the modification of a glycoprotein using a β-(1,4)-N-acetylgalactosaminyl transferase or a mutant thereof” (Synaffix B.V., priority 2014, dated 2021).

Test system: GlcNAc2-Man3-GlcNAc-GlcNAc(Fuc)-substituted trastuzumab (formula 27)
Assay: Glycosyltransfer of GalNAz to galactosidase-trimmed trastuzumab, MS analysis
Assay type: biochemical
Conditions: UDP-GalNAz 0.5 mM, CeGalNAcT 0.1 mg/mL, 10 mM MnCl2, pH 8.0, 16 hours, 22° C.
Method: Trastuzumab (10 mg/mL) in 50 mM sodium phosphate pH 6.0 and β(1,4)-galactosidase (3 mU/mg IgG) from Streptococcus pneumoniae (commercially available from Calbiochem) was stirred for 16 hrs at 37° C. prior to analysis by MS. A single major heavy chain product was observed corresponding to trastuzumab with a GlcNAc2-Man3-GlcNAc-GlcNAc(Fuc)-substituted heavy chain (c=d=0, 50592 Da).
A solution of 50 μg (modified) IgG, 1 M Tris-HCl pH 8.0, 1 mM EDTA and 30 mM DTT with a total volume of approximately 70 μL was incubated for 20 minutes at 37° C. to reduce the disulfide bridges allowing to analyze both light and heavy chain. If present, azide-functionalities are reduced to amines under these conditions. Reduced samples were washed trice with milliQ using an Amicon Ultra-0.5, Ultracel-10 Membrane (Millipore) and concentrated to 10 μM (modified) IgG. The reduced IgG was analyzed by electrospray ionization time-of-flight (ESI-TOF) on a JEOL AccuTOF. Deconvoluted spectra were obtained using Magtran software.
Trastuzumab obtained after trimming with galactosidase (as in Formula 27, preparation described in Example 24) was subjected to the glycosyltransfer protocol with UDP-GalNAz and GalNAcT.

major heavy chain product ((GalNAz-GlcNAc)2-Man3-GlcNAc-GlcNAc(Fuc)-substituted): ~90 % of the total heavy chain products
Substance: CeGalNAcT: truncated Caenorhabditis elegans β-(1,4)-GalNAcT, amino acids 30-383 of SEQ ID NO: 2 (SEQ ID NO: 6)
conversion into (GalNAz-GlcNAc)2-Man3-GlcNAc-GlcNAc(Fuc)-substituted trastuzumab: complete conversion
